Reference: US20250042940A1 (CREIGHTON UNIVERSITY, published 2025)
Non-standard residues stand in square brackets, D forms with d. No end group written: not given here. Pmb = 4-(di-t-butylphosphonomethyl)-3-methylbutyric acid, phosphonate replacement of phospho-Thr; pT = C[C@@H](OP(=O)(O)O)[C@H](N)C(=O)O; pS = N[C@@H](COP(=O)(O)O)C(=O)O

Key:
[1] = target: T1, 14-3-3ε protein (purified, as used in DSF and in the SPR of the Pmb peptide) (UniProt P62258 1-255); assay: SPR
T1 sequence (looked up): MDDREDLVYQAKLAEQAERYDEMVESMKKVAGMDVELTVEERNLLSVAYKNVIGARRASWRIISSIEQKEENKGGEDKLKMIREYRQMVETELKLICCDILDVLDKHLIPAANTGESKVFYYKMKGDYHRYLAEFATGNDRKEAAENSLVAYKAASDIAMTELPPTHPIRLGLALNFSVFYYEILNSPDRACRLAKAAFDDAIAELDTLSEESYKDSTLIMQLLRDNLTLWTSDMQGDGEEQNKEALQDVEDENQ

[2] = target: T1, 14-3-3ε protein (purified, as used in …); assay: differential scanning fluorimetry (DSF), 14-3-3ε alone against 14-3-3ε with peptide
14-3-3ε-(His)12 protein = target: T2, 14-3-3ε-(His)12 protein (UniProt P62258 1-255); assay: SPR, Biacore 8K, 14-3-3ε-(His)12 on NTA chip, peptide 1 nM-2000 nM, 25° C., mean±SD
T2 sequence: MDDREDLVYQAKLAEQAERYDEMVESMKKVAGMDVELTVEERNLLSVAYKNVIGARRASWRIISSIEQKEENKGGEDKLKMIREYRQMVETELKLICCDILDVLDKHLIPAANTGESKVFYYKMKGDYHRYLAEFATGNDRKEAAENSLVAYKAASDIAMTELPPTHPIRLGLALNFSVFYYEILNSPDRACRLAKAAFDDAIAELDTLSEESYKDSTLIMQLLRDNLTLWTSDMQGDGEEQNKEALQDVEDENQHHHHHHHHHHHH
Procedure: For the SPR measurements, binding affinities of the modified pT peptide for 14-3-3ε were measured by SPR using a Biacore 8K Surface plasmon resonance instrument. 100 nM 14-3-3ε-(His)12 protein in 20 mM Tris, 150 mM NaCl, 50 μM EDTA, 0.005% Tween 20, pH 7.4 buffer was immobilized to a NiCl2 activated NTA chip at a flow rate of 5 μL/min for 10 min and then washed with the running buffer for 20 min. Then peptide solutions at a concentration range of 1 nM-2000 nM were injected cycle-wise at the flow rate of 30 μL/min for 1 min, and dissociation time was set for 3 min. All SPR experiments were performed at 25° C. […] At least three replicates were done for each peptide at similar conditions, and binding affinities (KD) are presented as mean±SD.

[3] = target: T1, 14-3-3ε protein (purified, as used in …); assay: differential scanning fluorimetry (DSF), SYPRO-Orange, 2 µM protein and 30 µM peptide
Procedure: The binding of the modified pT peptide to 14-3-3ε was assessed using differential scanning fluorimetry (DSF) and surface plasmon resonance (SPR) measurements. The melting temperature (Tm) of 14-3-3ε-peptide complexes was determined by DSF using the BioRad CFX384 Touch realtime PCR. The protein unfolding was detected with a fluorescent SYPRO-orange dye. The assay was performed in 20 mM Tris, 150 mM NaCl, and 1 mM DTT PH7.4 buffer in a […] with a total volume of 20 μL, containing 2 and 30 μM, final concentrations of protein and peptide, respectively, and 500× dilution of the SYPRO-Orange dye stock. The excitation filter for the dye was 450-490 nm, and the emission filter was 560-580 nm. The temperature was held at 25° C. for 5 min and then increased from 25 to 95° C. at a rate of 0.3° C./ min, and fluorescence was recorded over time. Tm values were determined by plotting the first derivative of the melting curve.

[4] = target: T3, 14-3-3ε (endogenous, in human SCC12B.2 squamous cell carcinoma cells) (human, UniProt P62258 1-255); assay: cell-based or functional assay
T3 sequence (looked up): T1 sequence (looked up)

B1: first targeting peptide with a Pmb residue, Ac-Arg-Thr-Lys-Ser-Arg-Pmb-Trp-Ala-Gly-NH2 (peptide)
peptide: Ac-RTKSR[Pmb]WAG-NH2
notes: Synthetic analog of the pT peptide (CDC25A Thr507 site) in which the phospho-Thr is replaced by Pmb; also called phosphono-peptide
[1]
  Kd: 0.009 µM
[2]
  increase in melting temperature (ΔTm) of 14-3-3ε: 3.6 ° C.

B2: modified pT peptide, Ac-Arg-Thr-Lys-Ser-Arg-Thr(PO3^2-)-Trp-Ala-Tic-NH2 (peptide)
peptide: RTKSRTWAX
modifications: N-terminal acetyl; phospho-Thr at position 6; Tic residue at position 9; C-terminal amide
notes: Synthetic modification of peptide pT; also called peptide pT modified with a Tic residue
14-3-3ε-(His)12 protein
  Kd: 0.0309 µM
[3]
  increase in melting temperature (ΔTm) of 14-3-3ε: 4.43 ° C.

## Ac-RTKSR[pT]WAGEKSKR-NH2 [peptide pT, Ac-Arg-Thr-Lys-Ser-Arg-Thr(PO3^2-)-Trp-Ala-Gly-Glu-Lys-Ser-Lys-Arg-NH2]
[4]
  IC50, dose response curve in SCC12B.2 cells (Neutral Red Cell Viability assay): 22.6 µM

## WYWK-NH2 [targeting peptide ES1P2, Trp-Tyr-Trp-Lys-NH2]
[4]
  IC50, dose response curve in SCC12B.2 cells (Neutral Red Cell Viability assay): 20.6 µM

B3: peptide pS, Ac-Thr-Gln-Arg-Gln-Asn-Ser-(PO3^2-)-Ala-Pro-Arg-Met-Leu-Ser-Ser-Asn-NH2 (peptide)
peptide: Ac-TQRQN[pS]APRMLSSN-NH2
SMILES: CSCC[C@H](NC(=O)[C@H](CCCNC(=N)N)NC(=O)[C@@H]1CCCN1C(=O)[C@H](C)NC(=O)[C@H](COP(=O)(O)O)NC(=O)[C@H](CC(N)=O)NC(=O)[C@H](CCC(N)=O)NC(=O)[C@H](CCCNC(=N)N)NC(=O)[C@H](CCC(N)=O)NC(=O)[C@@H](NC(C)=O)[C@@H](C)O)C(=O)N[C@@H](CC(C)C)C(=O)N[C@@H](CO)C(=O)N[C@@H](CO)C(=O)N[C@@H](CC(N)=O)C(N)=O
[4]
  IC50, dose response curve in SCC12B.2 cells (Neutral Red Cell Viability assay): 29 µM
